Paper PMC12586603

Biological target: T1, 3xFLAG-HSF1, Q00613
T1 chain: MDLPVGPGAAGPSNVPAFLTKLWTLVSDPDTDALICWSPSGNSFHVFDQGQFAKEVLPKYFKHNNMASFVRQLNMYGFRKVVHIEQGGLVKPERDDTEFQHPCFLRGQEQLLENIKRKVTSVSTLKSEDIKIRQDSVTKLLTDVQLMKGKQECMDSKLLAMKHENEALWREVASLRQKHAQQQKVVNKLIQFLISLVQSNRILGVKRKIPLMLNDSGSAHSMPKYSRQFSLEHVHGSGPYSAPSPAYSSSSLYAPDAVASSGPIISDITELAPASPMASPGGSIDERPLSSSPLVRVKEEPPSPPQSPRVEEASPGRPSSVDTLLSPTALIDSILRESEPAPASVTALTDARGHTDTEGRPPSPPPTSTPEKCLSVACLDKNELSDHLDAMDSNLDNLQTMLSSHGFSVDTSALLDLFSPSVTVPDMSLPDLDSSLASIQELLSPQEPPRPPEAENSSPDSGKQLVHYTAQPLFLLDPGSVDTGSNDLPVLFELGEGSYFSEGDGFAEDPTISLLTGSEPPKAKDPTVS
Assay: cross-linking; cell extracts from transfected 293T cells, in vitro cross-linking with 2 mM ethylene glycol bis(succinimidyl succinate) (EGS), immunoblot; with or without DBC1 overexpression
Conditions: remark: other sources report otherwise

B1: 3xFLAG-HSF1, Q00613 1-529 (natural protein)
chain: T1 chain
- stoichiometry N: 3
